# Reference: the RNAGym collection of RNA variant scans (doi:10.7554/elife.80360)
# B1: Hairpin Ribozyme (parent)
# chain: GUCCUCUUUCACGUGCGCGUGAAAGAGAGAAGUGAACCAGAGAAACACACGUUGUGGUAUAUUACCUGGUA
# Variants of: B1
# Test: self-cleavage, relative activity (ratio to wild type); higher = more cleavage; co-transcriptional
row,Variant,self-cleavage
1,C18G G40U,0.187
2,C18G G42A,0.179
3,C18G G42U,0.279
4,C18G G51C,1.01
5,C18G G56U,0.2
6,C18G G57C,0.194
7,C18G G68C,0.266
8,C18G G69U,0.162
9,C18G U20G,0.724
10,C18G U33C,0.164
11,C18G U33G,0.123
12,C18G U55A,0.145
13,C18G U55C,0.233
14,C18G U62A,0.2
15,C18G U62C,0.2
16,C18G U63C,0.276
17,C18G U63G,0.27
18,C18G U70G,0.537
19,C18U A22C,0.949
20,C18U A22G,0.784
21,C18U A22U,1.1
22,C18U A23C,0.898
23,C18U A23U,0.997
24,C18U A24G,1.04

row,Variant,self-cleavage
1,C18U A24U,0.844
2,C18U A26C,0.525
3,C18U A28C,0.66
4,C18U A28U,0.606
5,C18U A30U,0.203
6,C18U A35U,0.802
7,C18U A36C,0.65
8,C18U A36U,0.634
9,C18U A41U,1.21
10,C18U A43C,0.164
11,C18U A45G,0.174
12,C18U A45U,0.109
13,C18U A47G,0.15
14,C18U A71U,0.832
15,C18U C37A,0.329
16,C18U C37G,0.352
17,C18U C38U,0.529
18,C18U C46A,0.252
19,C18U C50G,0.217
20,C18U C66U,0.554
21,C18U G19U,1.1
22,C18U G25A,0.703
23,C18U G25C,0.491
24,C18U G27A,0.433

row,Variant,self-cleavage
1,C18U G34A,1.3
2,C18U G42A,0.167
3,C18U G42C,0.416
4,C18U G51U,0.993
5,C18U G54C,0.543
6,C18U G56A,0.135
7,C18U G57C,0.157
8,C18U G69A,0.476
9,C18U U33C,0.172
10,C18U U33G,0.0901
11,C18U U52C,0.928
12,C18U U52G,0.859
13,C18U U53C,1.03
14,C18U U55C,0.318
15,C18U U58A,0.657
16,C18U U60C,1.28
17,C18U U60G,0.719
18,C18U U62A,0.225
19,C18U U70G,0.973
20,G19A A22G,0.714
21,G19A A22U,0.531
22,G19A A23C,0.763
23,G19A A23U,0.711
24,G19A A24G,0.737

row,Variant,self-cleavage
1,G19A A26U,0.563
2,G19A A28C,0.417
3,G19A A30U,0.14
4,G19A A31C,0.136
5,G19A A31U,0.176
6,G19A A36G,0.997
7,G19A A41G,0.754
8,G19A A45C,0.108
9,G19A A45G,0.195
10,G19A A47C,0.308
11,G19A A49C,0.131
12,G19A A49U,0.17
13,G19A A59G,0.2
14,G19A A61C,0.169
15,G19A A64G,0.579
16,G19A A71C,1.38
17,G19A C37A,0.264
18,G19A C38A,0.153
19,G19A C46A,0.176
20,G19A C46U,0.165
21,G19A C48G,0.153
22,G19A C48U,0.179
23,G19A C66A,0.314
24,G19A C66G,0.168

row,Variant,self-cleavage
1,G19A C66U,0.344
2,G19A G21U,0.727
3,G19A G25A,0.368
4,G19A G27A,0.243
5,G19A G27C,0.321
6,G19A G32C,0.111
7,G19A G34A,1.02
8,G19A G34C,1.32
9,G19A G34U,1.18
10,G19A G40C,0.0669
11,G19A G42A,0.202
12,G19A G51A,1.07
13,G19A G54A,0.51
14,G19A G54U,0.535
15,G19A G56A,0.124
16,G19A G56C,0.136
17,G19A G57U,0.289
18,G19A U20G,0.786
19,G19A U33A,0.0829
20,G19A U52A,0.809
21,G19A U58C,0.856
22,G19A U62A,0.0978
23,G19A U63A,0.104
24,G19A U63C,0.213

row,Variant,self-cleavage
1,G19A U67G,0.199
2,G19A U70A,0.599
3,G19C A22C,0.702
4,G19C A22G,0.866
5,G19C A23U,0.656
6,G19C A26C,0.272
7,G19C A28U,0.63
8,G19C A30C,0.221
9,G19C A35G,0.74
10,G19C A36U,0.603
11,G19C A39C,0.44
12,G19C A39U,0.441
13,G19C A41G,0.743
14,G19C A43G,0.219
15,G19C A44C,0.152
16,G19C A45U,0.142
17,G19C A47C,0.207
18,G19C A47U,0.152
19,G19C A49U,0.207
20,G19C A61C,0.333
21,G19C A64C,0.182
22,G19C A64U,0.135
23,G19C A71C,1.24
24,G19C C37A,0.32

row,Variant,self-cleavage
1,G19C C37G,0.356
2,G19C C37U,0.454
3,G19C C38G,0.142
4,G19C C50G,0.196
5,G19C C50U,0.397
6,G19C C65U,0.337
7,G19C C66A,0.238
8,G19C C66U,0.528
9,G19C G21A,0.657
10,G19C G25C,0.46
11,G19C G29U,0.159
12,G19C G32U,0.173
13,G19C G34U,1.45
14,G19C G40C,0.191
15,G19C G51A,0.903
16,G19C G51C,0.775
17,G19C G51U,0.973
18,G19C G54A,0.432
19,G19C G56C,0.124
20,G19C G57C,0.25
21,G19C G57U,0.275
22,G19C G68U,0.213
23,G19C G69A,0.403
24,G19C G69C,0.369

row,Variant,self-cleavage
1,G19C U20A,0.965
2,G19C U20C,0.809
3,G19C U20G,1.05
4,G19C U33A,0.125
5,G19C U33C,0.173
6,G19C U52C,0.775
7,G19C U53G,0.566
8,G19C U55A,0.17
9,G19C U55G,0.335
10,G19C U62G,0.282
11,G19C U70C,0.879
12,G19C U70G,0.695
13,G19U A23C,0.666
14,G19U A23U,0.944
15,G19U A28G,1
16,G19U A31C,0.0951
17,G19U A35G,1.06
18,G19U A35U,0.626
19,G19U A36C,0.554
20,G19U A36G,1
21,G19U A36U,0.628
22,G19U A41C,0.899
23,G19U A41G,0.913
24,G19U A43G,0.136

row,Variant,self-cleavage
1,G19U A43U,0.134
2,G19U A44G,0.163
3,G19U A45C,0.292
4,G19U A45G,0.228
5,G19U A45U,0.145
6,G19U A47C,0.418
7,G19U A47G,0.24
8,G19U A49C,0.18
9,G19U A49G,0.545
10,G19U A61C,0.236
11,G19U A61G,0.231
12,G19U A64U,0.217
13,G19U A71C,1.39
14,G19U A71U,0.738
15,G19U C37U,0.588
16,G19U C46U,0.136
17,G19U C48A,0.135
18,G19U C50U,0.33
19,G19U C66G,0.22
20,G19U G21C,0.692
21,G19U G25A,0.33
22,G19U G25C,0.537
23,G19U G25U,0.548
24,G19U G27C,0.318

row,Variant,self-cleavage
1,G19U G27U,0.262
2,G19U G29C,0.0899
3,G19U G34A,1.19
4,G19U G40C,0.11
5,G19U G42A,0.175
6,G19U G42U,0.346
7,G19U G51A,0.956
8,G19U G51C,0.707
9,G19U G51U,0.947
10,G19U G56A,0.16
11,G19U G56C,0.223
12,G19U G57A,0.169
13,G19U G68U,0.338
14,G19U G69A,0.32
15,G19U G69C,0.269
16,G19U U20C,0.731
17,G19U U55C,0.226
18,G19U U58A,0.607
19,G19U U60C,1.2
20,G19U U62C,0.256
21,G19U U63G,0.205
22,G19U U67A,0.131
23,G19U U67G,0.272
24,U20A,0.869

row,Variant,self-cleavage
1,U20A A23C,0.734
2,U20A A24G,0.895
3,U20A A26G,0.859
4,U20A A28C,0.482
5,U20A A28G,0.833
6,U20A A30U,0.145
7,U20A A31G,0.466
8,U20A A35U,0.872
9,U20A A36C,0.412
10,U20A A39U,0.296
11,U20A A43C,0.0739
12,U20A A44C,0.202
13,U20A A45U,0.172
14,U20A A59C,0.0988
15,U20A A59G,0.182
16,U20A A61C,0.156
17,U20A A64C,0.163
18,U20A C37U,0.511
19,U20A C38G,0.19
20,U20A C38U,0.45
21,U20A C46A,0.265
22,U20A C46G,0.162
23,U20A C48U,0.137
24,U20A C50G,0.132

row,Variant,self-cleavage
1,U20A C65U,0.388
2,U20A C66G,0.0899
3,U20A C66U,0.487
4,U20A G25C,0.447
5,U20A G27A,0.385
6,U20A G27C,0.175
7,U20A G32C,0.174
8,U20A G32U,0.0356
9,U20A G34U,1.29
10,U20A G40U,0.153
11,U20A G42A,0.226
12,U20A G42U,0.346
13,U20A G51A,0.765
14,U20A G51U,0.833
15,U20A G56U,0.114
16,U20A G57U,0.259
17,U20A G68C,0.112
18,U20A G69A,0.337
19,U20A U33A,0.114
20,U20A U33G,0.183
21,U20A U52A,0.844
22,U20A U52C,0.96
23,U20A U53C,0.682
24,U20A U53G,0.673

row,Variant,self-cleavage
1,U20A U55A,0.252
2,U20A U55C,0.258
3,U20A U55G,0.256
4,U20A U58C,0.847
5,U20A U60G,0.592
6,U20A U63A,0.261
7,U20A U63G,0.263
8,U20A U67G,0.256
9,U20A U70A,0.784
10,U20A U70G,0.651
11,U20C,0.963
12,U20C A22C,0.482
13,U20C A24C,0.612
14,U20C A26U,0.692
15,U20C A30G,0.112
16,U20C A31U,0.188
17,U20C A36C,0.526
18,U20C A36U,0.529
19,U20C A41C,1.11
20,U20C A43G,0.105
21,U20C A44G,0.204
22,U20C A44U,0.115
23,U20C A45C,0.105
24,U20C A47C,0.358

row,Variant,self-cleavage
1,U20C A47G,0.159
2,U20C A49G,0.524
3,U20C A59G,0.149
4,U20C A59U,0.157
5,U20C A61U,0.21
6,U20C A64C,0.151
7,U20C A64G,0.558
8,U20C A71G,1.12
9,U20C C37U,0.756
10,U20C C48A,0.221
11,U20C C50A,0.206
12,U20C G21C,0.778
13,U20C G25C,0.513
14,U20C G25U,0.576
15,U20C G27U,0.181
16,U20C G29A,0.181
17,U20C G32A,0.274
18,U20C G34A,1.15
19,U20C G34U,1.32
20,U20C G40C,0.218
21,U20C G42U,0.172
22,U20C G51A,1.19
